In patent US20250313625A1 (ELPISCIENCE SUZHOU BIOPHARMA, published 2025):

How the values were obtained:
[1] = molecular target: T1, human LAG3, full length, stably expressed on cells (human, UniProt P18627 23-525); test: FACS on 293F cells stably expressing human LAG3
T1 construct: whole, on cells; also called CHOK1-human LAG3
T1 sequence (looked up): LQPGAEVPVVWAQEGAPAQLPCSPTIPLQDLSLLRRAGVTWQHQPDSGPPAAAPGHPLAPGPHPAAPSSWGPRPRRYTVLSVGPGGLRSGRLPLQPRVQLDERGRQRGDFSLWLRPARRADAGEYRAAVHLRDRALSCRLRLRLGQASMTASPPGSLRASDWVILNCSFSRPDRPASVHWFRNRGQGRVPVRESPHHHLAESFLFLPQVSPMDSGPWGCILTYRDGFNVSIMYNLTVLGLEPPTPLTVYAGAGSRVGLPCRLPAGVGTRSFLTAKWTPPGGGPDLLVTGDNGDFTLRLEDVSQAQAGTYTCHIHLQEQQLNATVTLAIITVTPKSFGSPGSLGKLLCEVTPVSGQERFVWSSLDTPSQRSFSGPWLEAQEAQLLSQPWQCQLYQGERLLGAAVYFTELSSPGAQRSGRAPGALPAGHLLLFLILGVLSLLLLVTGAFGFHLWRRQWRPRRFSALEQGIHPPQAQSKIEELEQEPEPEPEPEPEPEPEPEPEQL
Procedure: (§1) Briefly the antibodies were incubated with 2×10⁵ target cells at 4° C. for 1 hour. After washing, fluorescence labeled anti-mouse IgG 2nd antibody (Life Technologies) was added and incubated at 4° C. for 1 hour. Geometric median fluorescence intensity (MFI) was detected and EC₅₀ was calculated using GraphPad Prism9.0.
MFI was detected and EC₅₀ was calculated using GraphPad Prism9.0.

[2] = molecular target: T2, human LAG3 (form used in Octet, Biacore and HDX-MS not given) (human, UniProt P18627 23-450, limits assumed); test: SPR (Biacore), 1:1 fit
T2 sequence (looked up): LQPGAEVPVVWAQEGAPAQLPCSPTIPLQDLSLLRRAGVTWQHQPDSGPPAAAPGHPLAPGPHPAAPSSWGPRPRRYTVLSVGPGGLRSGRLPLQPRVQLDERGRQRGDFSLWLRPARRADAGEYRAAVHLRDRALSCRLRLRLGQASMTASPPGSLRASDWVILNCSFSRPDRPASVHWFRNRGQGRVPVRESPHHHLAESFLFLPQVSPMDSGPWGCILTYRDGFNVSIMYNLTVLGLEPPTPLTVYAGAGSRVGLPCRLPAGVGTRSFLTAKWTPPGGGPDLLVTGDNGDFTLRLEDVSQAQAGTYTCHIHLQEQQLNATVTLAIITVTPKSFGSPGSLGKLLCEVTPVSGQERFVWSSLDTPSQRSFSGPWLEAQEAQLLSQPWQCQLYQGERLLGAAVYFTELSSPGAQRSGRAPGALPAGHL
Procedure: The association and dissociation curves were fit with 1:1 binding model, and the Ka/Kd/KD values for each antibody were calculated.

[3] = molecular target: T3, hFc tagged human LAG3 ECD recombinant protein (human, UniProt P18627 23-450); test: competitive ELISA format II: biotin hFc-LAG3 ECD binding to coated His-FGL1
T3 construct: range 23-450; also called biotin labelled hFc tagged human LAG3 ECD; not shown: human IgG Fc tag
T3 sequence (looked up): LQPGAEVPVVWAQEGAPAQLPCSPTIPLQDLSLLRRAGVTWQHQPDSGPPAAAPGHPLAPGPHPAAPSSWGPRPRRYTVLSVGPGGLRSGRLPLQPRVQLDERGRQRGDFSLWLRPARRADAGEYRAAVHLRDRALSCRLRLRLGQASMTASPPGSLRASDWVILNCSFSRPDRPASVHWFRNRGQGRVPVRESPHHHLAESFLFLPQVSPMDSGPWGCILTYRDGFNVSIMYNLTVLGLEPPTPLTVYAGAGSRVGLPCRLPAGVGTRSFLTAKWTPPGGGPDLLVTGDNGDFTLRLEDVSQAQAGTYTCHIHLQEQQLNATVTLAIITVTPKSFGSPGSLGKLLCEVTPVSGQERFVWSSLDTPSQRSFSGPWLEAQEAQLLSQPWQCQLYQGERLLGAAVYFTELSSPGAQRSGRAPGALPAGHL
Procedure: After washing, HRP labeled anti-His 2nd antibody (Sigma) was added and incubated at 37° C. for 1 hour. Then, 100 μl/well of TMB solution (Biotechnology) was added. After incubation for 15 minutes at room temperature, the reaction was stopped by the addition of 50 μl of 1N HCl. OD 450 nm was read. […] After washing, HRP labeled anti-SA 2nd antibody (Sigma) was added and incubated at 37° C. for 1 hour. Then, 100 μl/well of TMB solution (Biotechnology) was added. After incubation for 15 minutes at room temperature, the reaction was stopped by the addition of 50 μl of 1N HCl. OD 450 nm was read. […] The competition assay of format III is a competitive FACS assay. […] After washing, dye labeled anti-His 2nd antibody (Sigma) was added and incubated at 37° C. for 1 hour. Fluorescence intensity was detected.

[4] = molecular target: T4, mFc tagged human LAG3 ECD recombinant protein (human, UniProt P18627 23-450); test: competitive FACS: mFc-LAG3 ECD binding to Raji cells (MHC II)
T4 construct: extracellular domain; purchased from Biointron; not shown: mouse IgG Fc (mFc) tag
T4 sequence (looked up): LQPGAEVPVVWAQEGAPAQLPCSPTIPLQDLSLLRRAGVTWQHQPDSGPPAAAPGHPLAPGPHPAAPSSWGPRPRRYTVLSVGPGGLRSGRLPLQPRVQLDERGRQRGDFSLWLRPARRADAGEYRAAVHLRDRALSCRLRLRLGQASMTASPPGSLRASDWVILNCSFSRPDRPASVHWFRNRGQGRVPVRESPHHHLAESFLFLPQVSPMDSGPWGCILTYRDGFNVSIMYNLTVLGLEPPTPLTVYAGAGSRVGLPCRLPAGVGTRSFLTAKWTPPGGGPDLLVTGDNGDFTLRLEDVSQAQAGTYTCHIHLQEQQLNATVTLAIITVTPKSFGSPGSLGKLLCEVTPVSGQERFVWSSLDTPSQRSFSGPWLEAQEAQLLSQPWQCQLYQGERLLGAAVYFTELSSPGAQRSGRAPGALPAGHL
Procedure: Activity of the purified chimeric antibodies to block LAG3 and MHC II interaction was determined by competitive FACS assay. […] After washing, dye labeled anti-mouse Fc 2nd antibody (Sigma) was added and incubated at 37° C. for 1 hour. Fluorescence intensity was detected.

[5] = molecular target: T2, human LAG3 (form used in Octet, Biacore …); test: BLI (Octet)
[6] = molecular target: T5, mouse LAG3, full length, stably expressed on CHOK1 cells (mouse, UniProt Q61790 24-521); test: FACS on CHOK1 cells expressing mouse LAG3
T5 construct: whole, on cells
T5 sequence (looked up): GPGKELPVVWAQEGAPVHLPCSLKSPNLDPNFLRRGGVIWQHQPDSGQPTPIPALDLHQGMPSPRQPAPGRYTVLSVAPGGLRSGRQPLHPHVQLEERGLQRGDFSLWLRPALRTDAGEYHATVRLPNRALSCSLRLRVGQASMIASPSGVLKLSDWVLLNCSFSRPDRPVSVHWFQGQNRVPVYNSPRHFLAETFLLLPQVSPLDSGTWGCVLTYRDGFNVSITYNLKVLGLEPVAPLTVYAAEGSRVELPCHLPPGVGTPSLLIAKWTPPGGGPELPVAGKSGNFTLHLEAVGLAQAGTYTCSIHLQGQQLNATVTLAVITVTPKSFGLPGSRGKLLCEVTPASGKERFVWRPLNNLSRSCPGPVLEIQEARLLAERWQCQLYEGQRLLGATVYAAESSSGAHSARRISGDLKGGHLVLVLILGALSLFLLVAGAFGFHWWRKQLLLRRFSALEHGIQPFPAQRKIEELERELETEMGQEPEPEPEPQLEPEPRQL
Procedure: as §1

[7] = molecular target: T3, hFc tagged human LAG3 ECD recombinant …; test: competitive ELISA: excess competitor, biotin hFc-LAG3 ECD, coated BMS-986016
Procedure: (§2) Competitive ELISA assay was used for epitope binning of the purified hybridoma antibodies. […] After washing, HRP labeled anti-streptavidin (SA) 2nd antibody (Sigma) was added and incubated at 37° C. for 1 hour. Then, 100 μl/well of TMB solution (Biotechnology) was added. After incubation for 15 minutes at room temperature, the reaction was stopped by the addition of 50 μl of 1N HCl. OD 450 nm was read. Competition ratio was calculated.

[8] = molecular target: T3, hFc tagged human LAG3 ECD recombinant …; test: competitive ELISA: excess competitor, biotin hFc-LAG3 ECD, coated BAP-050
Procedure: as §2

[9] = molecular target: T6, hFc tagged human LAG3 D1-D2 recombinant protein (human, UniProt P18627 23-261); test: ELISA, coated hFc-hLAG3 D1-D2
T6 construct: range 23-261; generated by Chempartner; also called hLAG3 D1-D2; not shown: human IgG Fc tag
T6 sequence (looked up): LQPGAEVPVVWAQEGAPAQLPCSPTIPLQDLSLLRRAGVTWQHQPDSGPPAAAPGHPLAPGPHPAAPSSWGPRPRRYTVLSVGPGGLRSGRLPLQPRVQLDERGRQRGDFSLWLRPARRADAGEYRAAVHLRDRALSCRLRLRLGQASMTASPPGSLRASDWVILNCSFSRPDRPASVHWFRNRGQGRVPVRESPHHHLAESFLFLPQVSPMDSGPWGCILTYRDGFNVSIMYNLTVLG
Procedure: Binding activity of the purified hybridoma antibodies against human LAG3 was detected by ELISA assay using hFc tagged human LAG3 D1-D2 recombinant protein. Briefly the antibodies were incubated with ELISA microplate coated antigens at 37° C. for 1 hour. After washing, horseradish peroxidase (HRP) labeled anti-human IgG 2nd Ab (Sigma) was added and incubated at 37° C. for 1 hour. Then, 100 μl/well of TMB solution (Biotechnology) was added. After incubation for 15 minutes at room temperature, the reaction was stopped by the addition of 50 μl of 1N HCl. OD 450 nm was read and EC₅₀ was calculated using GraphPad Prism9.0.

[10] = molecular target: T3, hFc tagged human LAG3 ECD recombinant …; test: competitive FACS: hFc-LAG3 ECD binding to Raji cells (MHC II)
Procedure: Competitive FACS assay was used to determine whether the purified hybridoma antibodies can block LAG3 and MHC II interaction. […] After washing, dye labeled anti-human Fc 2nd antibody (Sigma) was added and incubated at 37° C. for 1 hour. Fluorescence intensity was detected.

[11] = molecular target: T1, human LAG3, full length, stably …; test: FACS on 293F-human LAG3 cells
Procedure: as §1

[12] = molecular target: T7, cyno LAG3, full length, stably expressed on 293F cells (cyno); test: FACS on 293F-cyno LAG3 cells, 20 nM antibody
T7 construct: whole, on cells
Procedure: as §1

B1: hu023.04 (antibody, human IgG4, V domains shown)
VH: QVQLVQSGAEVKKPGASVKVSCKASGYTFTESPMNWVRQAPGQGFEWMGIIYTDTGEPTYAEEFKGRVTMTRDTSTSTVYMELSSLRSEDTAVYFCASDYGSILYWYFDVWGQGTLVTVSS
VL: DIQMTQSPSSLSASVGDRVTITCKASQDVSTAVAWYQQKPGKAPKLLIYSASYRYTGVPSRFSGSGSGTDFTLTISSLQPEDFATYYCQQHYNAPPTFGQGTKLEIK
notes: humanized from 023c
EC50 [1]: 0.4 nM | TOP MFI [1]: 3180 | Kd [2]: 0.242 nM | koff [2]: 0.000402 s⁻¹ | kon [2]: 1.66e+06 M⁻¹ s⁻¹ | IC50 [3]: 1.7 nM | TOP blocking (%) [3]: 82.2% | IC50 [4]: 5.9 nM | TOP blocking (%) [4]: 99.2% | Kd [5]: 0.537 nM | koff [5]: 0.000164 s⁻¹ | kon [5]: 305000 M⁻¹ s⁻¹

B2: Antibody 021 (antibody, V domains shown)
VH: DIQLQESGPGLVKPSQSLSLTCSVTGYSITSGYYWNWIRQFPGNKLEWMGDISYDGGNNYNPSLKNRISITRDTSKNQFFLKLNSVTTEDTATYYCARDITLTGAMDYWGQGTSVTVSS
VL: DIVLTQSPASLAVSLGQRATISCRASESVDNYGISFMHWYQQRPGQPPKLLIYRASNLESGIPARFSGSGSRTDFTLTINPVETDDVATYYCQQSNKDPYTFGGGTKLEIK
notes: mouse hybridoma antibody
binding result [6]: no binding | % competition [7]: 6.9% | % competition [8]: 57.1% | EC50 [9]: 0.02 nM | IC50 [10]: 4 nM | TOP blocking (%) [10]: 98.6% | EC50 [11]: 5.52 nM | MFI at 20 nM [12]: 105 MFI
